Changes are numbered by the printed parent chain. Where “and” joins values, the source holds several entries; their conditions need not be identical. Equal entries are not always repeated.

Consider 18 molecules from PMC8852740, “Neutralization of Typhoid Toxin by Alpaca-Derived, Single-Domain Antibodies Targeting the PltB and CdtB Subunits” (Infection and Immunity, 2021).

First the molecules themselves.
B1: T4C4 (VHH)
VHH: QVQLAESGGGLVQPGGSLRLSCAASGSIFSINVMGWYRQAPGKQRESVAVITRGGGTMYADSVKGRATISRDSAKNTVYLQMNSLKPEDTAVYYCNADLMQAVDSEYEDYWGQGTQVTVSS
notes: also called anti-CdtB VHH T4C4; source: E. coli Rosetta-gami 2(DE3)pLacI, pET32b+, purified (Ni-NTA)
B2: T4C12 (VHH)
VHH: B1 VHH with S47F, G56S, M58D, A67F, S73N, A102T, V103S, D104A, Y110C
notes: also called anti-CdtB VHH T4C12; source: E. coli Rosetta-gami 2(DE3)pLacI, pET32b+, purified (Ni-NTA)
B3: T4E5 (VHH)
VHH: QLQLVETGGGLVQPGGSLKLSCVASGSIFSINVMGWFRQASGKQREVVAQITRGGGTIYADSVKGRFTISRDDAKNSVYLQMNSLNPEDTAVYLCNADLMQGIDSEYEDYWGQGTQVTVSS
notes: also called anti-CdtB VHH T4E5; source: E. coli Rosetta-gami 2(DE3)pLacI, pET32b+, purified (Ni-NTA)
B4: T2E7 (VHH)
VHH: QLQLVESGGGLVQPGGSLRLSCAASGFTLDYYAIGWFRQAPGKERERVSCISGRDGGTYYADSVKGRFAISRDNAQNTVYLQMSRLKPEDTAAYYCAADYADNYCTGSFPPDYWGQGTQVTVSS
notes: also called anti-PltB VHH T2E7; source: E. coli Rosetta-gami 2(DE3)pLacI, pET32b+, purified (Ni-NTA)
B5: T4E8 (VHH)
VHH: QLQLVESGGGLVQAGGSLRLSCAASGMSFSTYTMGWYRQAPGKRRGLVATISSGGSTNYADSVKGRFTISRDNAKDTVYLQMNSLKPEDTAEYYCNVKGDYQTPNMGYWGQGTRVTVSS
notes: also called anti-CdtB VHH T4E8; source: E. coli Rosetta-gami 2(DE3)pLacI, pET32b+, purified (Ni-NTA)
B6: T2G9 (VHH)
VHH: QVQLVETGGGSVQAGGSLRLSCAASGFTFDDYAIGWFRQAPGKEREMILCINSRGGSTSYYADSVKGRFTVSVNSAKNTAYLQMNSLKPEDTAVYYCAADVTPPHSCNALDAWGQGTLVTVSS
notes: also called anti-PltB VHH T2G9; source: E. coli Rosetta-gami 2(DE3)pLacI, pET32b+, purified (Ni-NTA)
B7: T4F3 (VHH)
VHH: QLQLVETGGGLVQPGGSLTLSCAASGFTLNYWHMGWYRQAPGKQRELVATISGHGITNYADSVKGRFTISRDDAKNSVYLQMNSLKPEDTAVYYCNFISRTNDWGQGTQVTVSS
notes: also called anti-CdtB VHH T4F3; source: E. coli Rosetta-gami 2(DE3)pLacI, pET32b+, purified (Ni-NTA)
B8: T4C11 (VHH)
VHH: B1 VHH with V2L, A5V, S7T, V33I, A67F
notes: also called anti-CdtB VHH T4C11; source: E. coli Rosetta-gami 2(DE3)pLacI, pET32b+, purified (Ni-NTA)
B9: T4B5 (VHH)
VHH: QLQLAESGGGLVQPGGSLRLSCAASGSIFSINVMGWYRQVPGKQREWVASITRGGGTLYADSVKGRFTISRDSAKNTVYLQMNSLKPEDTAVYYCNADLMEDSDSDYHEYWGQGTQVTVSS
notes: also called anti-CdtB VHH T4B5; source: E. coli Rosetta-gami 2(DE3)pLacI, pET32b+, purified (Ni-NTA)
B10: T2G1 (VHH)
VHH: QVQLAESGGGLVQAGGSLRLSCAASGLTFDKYAIGWFRQAPGKERELVSCISTNYGSTYYADSVKGRFTISTDNAKNTVYLQMNGLKPEDTAVYYCAADTRSSWPSCNALDTWGQGTLVTVSS
notes: also called anti-PltB VHH T2G1; source: E. coli Rosetta-gami 2(DE3)pLacI, pET32b+, purified (Ni-NTA)
B11: T2G11 (VHH)
VHH: QVQLVETGGLVQAGGSLSLSCAVSGRTFNLLHLAWFRQAPGNERDLVASISGSLGSVYYADSVRGRFTISRDAANNTVYLQMNSLKLEDTAVYYCAGAPIFDRFSSSSSSYDYWGQGTQVTVSS
notes: also called anti-PltB VHH T2G11; source: E. coli Rosetta-gami 2(DE3)pLacI, pET32b+, purified (Ni-NTA)
B12: T2F2 (VHH)
VHH: QVQLAESGGGLVQAGGSLRLSCVASGRTFSSYAMGWFRRAPGKEREFVASILWSDGSAAYADSVEGRFTISRDNAKNTVHLQMNSLQPEDTAVYYCAAEARGSGTRWGNEYDYWGQGTQVTVSS
notes: also called anti-PltB VHH T2F2; source: E. coli Rosetta-gami 2(DE3)pLacI, pET32b+, purified (Ni-NTA)
B13: T2F3 (VHH)
VHH: QVQLAETGGALVQTGGSLRLSCAVSGRNSEIQGLGWYRQAPGKEREFVATINWRSGATYYDDSVKGRFSISRDNAENTVSLQMNDLKPDDTAVYYCGAGMSPIARMDYWGQGTQVTVSS
notes: also called anti-PltB VHH T2F3; source: E. coli Rosetta-gami 2(DE3)pLacI, pET32b+, purified (Ni-NTA)
B14: T2F7 (VHH)
VHH: QVQLVESGGGLVQPGGSLRLSCAASGFDFSRSTLSWVRQSPGKDFEWVSDINSGSTLTNYGDSVKGRFTTSRDNAKNTLYLQMNSLKPEDTAVYYCVKGMWITRDQPRGQGTQVTVSS
notes: also called anti-PltB VHH T2F7; source: E. coli Rosetta-gami 2(DE3)pLacI, pET32b+, purified (Ni-NTA)
B15: T2F11 (VHH)
VHH: QVQLVETGGGLVQPGGSLRLSCVLSGSDLAYYNVGWFRQAPGKEREGVACTSRVSDTKYYADSVKARFTVARDNAKNTVNLQMNSLRPEDTAVYSCALLRWCTTEGSDSEGMGHWGKGTLVTVSS
notes: also called anti-PltB VHH T2F11; source: E. coli Rosetta-gami 2(DE3)pLacI, pET32b+, purified (Ni-NTA)
B16: T2G4 (VHH)
VHH: QVQLVESGGGSLRLSCAVFGRTFSGDAVGWFRQAPGKEREFVAAINWNGRSTDYADSVKGRFTISRDDTENTVYLQMNSLKPEDTAVYYCATSREDYGSSFLRGSYDYLGQGTQVTVSS
notes: also called anti-PltB VHH T2G4; source: E. coli Rosetta-gami 2(DE3)pLacI, pET32b+, purified (Ni-NTA)
B17: T2F6 (VHH)
VHH: QLQLAESGGGLVQPGGSLRLSCAVSGFMVNSYDIGWFRQAPGKAREGISCINTSGDTPNYADSVKGRFTISRDNAKNMVYLQMNSLKPEDTATYFCAANRMTRCSDYNGYPYWGQGTQVIVSS
notes: also called anti-PltB VHH T2F6; source: E. coli Rosetta-gami 2(DE3)pLacI, pET32b+, purified (Ni-NTA)
B18: T2E1 (VHH)
VHH: QVQLAESGGGFVQAGGSLRLSCVESGRSFSVFAMGWFRQAPGKERELVAAISWRGDSTYYADLVKGRFTISRDNAKNAVYLQMNSLKPEDTAVYYCAADRSDYVVTHEYDYWGQGTQVTISP
notes: also called anti-PltB VHH T2E1; source: E. coli Rosetta-gami 2(DE3)pLacI, pET32b+, purified (Ni-NTA)

The target of the first assay is T1, typhoid toxin (A2B5 holotoxin: CdtB, PltA and a PltB homopentamer), biotinylated (Salmonella enterica serovar Typhi; …, UniProt Q8Z6A7;Q8Z6A4;Q8Z6A3).
T1 construct: also called TyT; biotinylated typhoid toxin; not shown: His6, C-terminal, kept; copies: 1 + 1 + 5
Nature of the assay: BLI; Octet Red96e; […] (2 µg/mL) […]; association 5 min, dissociation 30 min; 25°C; 1:1 model; […]. As to conditions: both partners purified. Background: In BLI a coated tip is dipped into the sample, and binding shifts an interference pattern.
Consider B1, for which the Kd is 0.284 nM and 0.11 nM; the dissociation rate constant (koff) is 0.000264 s⁻¹ and 0.00026 s⁻¹; the kon was 929000 M⁻¹ s⁻¹ and 2.36e+06 M⁻¹ s⁻¹.

Consider B2, for which the Kd was 2.84 nM and 1.55 nM; the koff was 0.00121 s⁻¹ and 0.00243 s⁻¹.

As to B3, the kon is 424000 M⁻¹ s⁻¹ and 382000 M⁻¹ s⁻¹ and 306000 M⁻¹ s⁻¹.

Another assay addresses T2, typhoid toxin (A2B5 holotoxin: CdtB, PltA and a PltB homopentamer), biotinylated (Salmonella enterica serovar Typhi; …, UniProt Q8Z6A7;Q8Z6A4;Q8Z6A3).
T2 construct: also called TyT; biotinylated typhoid toxin; not shown: His6, C-terminal, kept; copies: 1 + 1 + 5
The description is as above. The settings on record: both partners purified.
As for B4, the Kd is 0.629 nM and 0.618 nM and 0.911 nM; the koff was 0.000278 s⁻¹ and 0.000313 s⁻¹ and 0.000369 s⁻¹; the kon is 443000 M⁻¹ s⁻¹ and 507000 M⁻¹ s⁻¹ and 405000 M⁻¹ s⁻¹.

B5: the Kd is 2.03 nM and 4.44 nM; the on-rate constant (kon) was 53300 M⁻¹ s⁻¹ and 73600 M⁻¹ s⁻¹.

Regarding B6, the kon is 155000 M⁻¹ s⁻¹ and 139000 M⁻¹ s⁻¹ and 105000 M⁻¹ s⁻¹.

In another assay the target is T1, typhoid toxin (A2B5 holotoxin: CdtB, …). The assay is described as follows: ELISA; […] (30 min, 37°C) […]. The settings on record: both partners purified. Background: In an ELISA, binding on a coated surface is turned into a signal by an enzyme label.
With B7, the binding result is reported as “binds”.

Consider B8, for which the binding result is “binds”.

As to B9, the binding result was “binds”.

The target in the next assay is T3, PltB homopentamer, biotinylated (Salmonella enterica serovar Typhi; …, UniProt Q8Z6A3, biotinylated with EZ-link NHS-Biotin (sites not given)).
T3 construct: also called PltB5; pentameric PltB subunits
The assay is described as follows: ELISA; […] (30 min, 37°C) […]. As to conditions: both partners purified.
For the molecule B10, the binding result is “binds”.

Take B4: the binding result is given as “binds”.

As to B11, the binding result is listed as “binds”.

Take B12: the binding result is given as “binds”.

On to B13, for which the binding result is recorded as “binds”.

As to B14, the binding result is given as “binds”.

B15: the binding result was “binds”.

On to B16, for which the binding result is “binds”.

In the case of B17, the binding result was “binds”.

B6: the binding result is “binds”.

On to B18, for which the binding result is recorded as “binds”.

The term Kd denotes the constant that tells how readily two partners part at equilibrium. As usually defined, the koff is a measure of how fast the partners let go of each other. A higher koff goes with fast dissociation. What is called kon is a measure of how fast the partners come together. Higher therefore signals faster complex formation.
